# Legend:
# GST-p53 = experiment: DNA-protein ELISA; details: EMSA: 100 ng p53 (or 5 ug KB nuclear extract), 3 ng probe, 30 min at RT, 4% native PAGE with 0.5x TBE, buffer per ref [25]; ELISA: p53 in PBS on PAb421, 0.5 ug …
# His-p53 = experiment: DNA-protein ELISA; details: EMSA: 100 ng p53 (or 5 ug KB nuclear extract), 3 ng probe, 30 min at RT, 4% native PAGE with 0.5x TBE, buffer per ref [25]; ELISA: p53 in PBS on PAb421, 0.5 ug …
substance,measurement,setting,value
biotin-p21-5'-DBS,binding signal (% protection of DBS binding),GST-p53,60
same,binding signal (% protection of DBS binding),His-p53,60
